Measurements published in US20240076663A1, “PEPTIDE-NUCLEIC ACID COMPLEX HAVING BLOOD-BRAIN BARRIER PENETRATION ABILITY AND COMPOSITION COMPRISING SAME” (SEASUN THERAPEUTICS, INC, priority 2019, published 2024).
“Also recorded” adds a separate entry of the source.

Columns and labels:
[1] = general knowledge stated in the patent; cited from earlier work
[2] = Blood-brain barrier permeability of the nucleic acid complex in a mouse model (cy3 fluorescence in brain tissue, confocal microscopy); assay type: in vivo; conditions: ICR mice, 20 mg/kg caudal vein; for distribution of fluorescence expression among brain regions: 20 mg/kg
Experimental: In order to confirm the blood-brain barrier permeability of the nucleic acid complex, 6-week-old male ICR mice (OrientBio, Korea) were purchased and acclimatized for a week, after which 20 mg/kg (n=6) of the nucleic acid complex was administered to the caudal veins thereof. In a positive control group (n=6), fluorescent-material-labeled methotrexate was administered to the caudal veins, and in a negative control group (n=6), DMSO at the same concentration as in the experimental group was diluted with saline and administered via the same route.
The mouse model was anesthetized by intraperitoneal administration of Avertin (5 mg/kg), followed by washing and fixing of the brain tissue through perfusion with saline and 4% paraformaldehyde. The fixed brain tissue was separated and dehydrated by placing the same in 30% sugar water for 24 hours, after which an embedding process was performed using OCT. The entire region of the brain tissue was cryosectioned into 30 μm sections. In order to observe the entire brain tissue from the cerebral cortex to the brainstem, the tissues were broadly separated into a total of six regions, namely the prefrontal cortex, lateral ventricle, paraventricular nucleus, hippocampus, midbrain, and cerebellum, and mounted on slide glasses, and the nuclei were stained with DAPI for 15 minutes and then analyzed using a confocal microscope.
Therefore, in order to determine whether the administered material spreads through the present system, the brain tissue was classified into six major regions from the front to the back and analyzed. In addition, in order to observe the extent of spreading over time, the groups were separately observed on day 1 and day 3, and the numerical values thereof were analyzed.
Then, for all experimental groups to which the nucleic acid complex was administered, the distribution of fluorescence in tissues depending on the administration date was numerically analyzed, and the distribution of fluorescence expression in each tissue of the brain after administration of the nucleic acid complex was compared.

Molecule	bioavailability (known) [1]	blood-brain barrier crossing (known) [1]	fluorescence expression by cy3 in brain tissue (confocal microscopy) ([2]; FIG. 1, versus group given only methotrexate)	fluorescence expression, day 3 versus day 1 ([2]; all brain tissue regions)	distribution of fluorescence expression among brain regions ([2]; day 1)	distribution of fluorescence expression among brain regions ([2]; day 3)
CN(Cc1cnc2nc(N)nc(N)c2n1)c1ccc(C(=O)N[C@@H](CCC(=O)O)C(=O)O)cc1 [Methotrexate]	very low bioavailability	known to cross the blood-brain barrier	–	–	–	–
POLIGO ™_1 (chain 1 ATGATTCTGCCCTCC; chain 2 TACTAAGACGGGAGG; chemistry not given here; one strand is listed 3' to 5')	–	–	high fluorescence expression compared to the group administered only with methotrexate	higher on day 3 than on day 1 in all brain tissue regions	higher in the midbrain and cerebellum; also recorded: high in the midbrain and cerebellum	the fluorescence spread to the prefrontal cortex; also recorded: high even in the prefrontal cortex
O=C(O)CCCc1ccc(N(CCCl)CCCl)cc1 [Chlorambucil]	–	incapable of crossing the blood-brain barrier	–	–	–	–
